T1: hICOSL-mG2a (human; mouse, UniProt O75144 19-256, limits assumed)
T1 construct: also called hICOSL-mG2a Fc; not shown: mouse IgG2a Fc
T1 sequence (looked up): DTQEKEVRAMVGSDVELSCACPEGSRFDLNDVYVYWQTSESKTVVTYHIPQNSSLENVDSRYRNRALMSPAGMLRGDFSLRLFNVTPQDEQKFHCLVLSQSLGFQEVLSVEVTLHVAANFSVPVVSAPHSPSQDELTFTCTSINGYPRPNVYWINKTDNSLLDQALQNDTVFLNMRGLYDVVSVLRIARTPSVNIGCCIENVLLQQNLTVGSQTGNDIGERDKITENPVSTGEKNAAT

T2: mouse ICOS-hFc (homodimeric, bivalent) (mouse; human, UniProt Q9WVS0 21-142)
T2 construct: also called mICOS-hFc; mouse ICOS-Fc; not shown: human IgG1 Fc (IgG1 backbone)
T2 sequence: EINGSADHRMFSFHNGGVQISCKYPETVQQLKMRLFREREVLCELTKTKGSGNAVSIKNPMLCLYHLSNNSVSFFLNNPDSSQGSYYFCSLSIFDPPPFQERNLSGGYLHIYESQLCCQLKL

T3: mouse ICOS (full length, on cells) (mouse, UniProt Q9WVS0 21-200)
T3 construct: also called CHO-mICOS; mouse ICOS+ CHO cells
T3 sequence: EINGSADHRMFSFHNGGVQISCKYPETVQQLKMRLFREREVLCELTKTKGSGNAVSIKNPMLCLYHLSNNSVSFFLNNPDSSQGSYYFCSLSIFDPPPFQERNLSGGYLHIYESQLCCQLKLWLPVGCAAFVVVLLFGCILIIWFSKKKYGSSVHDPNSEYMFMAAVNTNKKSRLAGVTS

T4: monovalent, heterodimeric human ICOS-Fc (human)
T4 construct: Make-up of the heterodimer is not described; also called Monomeric hICOS; monomeric form of human ICOS; not shown: The human IgG1 Fc fused to ICOS, and the partner Fc chain of the heterodimer
T4 chain: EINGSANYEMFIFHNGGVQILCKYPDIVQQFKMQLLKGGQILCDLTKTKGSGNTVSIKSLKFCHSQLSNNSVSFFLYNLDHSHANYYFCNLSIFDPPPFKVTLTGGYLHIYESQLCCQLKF

T5: cynomolgus ICOS-Fc (homodimeric, bivalent) (cynomolgus monkey, UniProt Q9Y6W8 21-140 (human entry))
T5 construct: also called cynoICOS-Fc; cyno ICOS-Fc; not shown: human IgG1 Fc (IgG1 backbone)
T5 chain: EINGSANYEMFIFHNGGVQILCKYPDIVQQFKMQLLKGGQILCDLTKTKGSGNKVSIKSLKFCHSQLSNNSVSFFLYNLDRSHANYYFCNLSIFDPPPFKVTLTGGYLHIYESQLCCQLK

T6: mouse BTLA Fc fusion (dimeric) (mouse, UniProt Q7TSA3 30-183)
T6 construct: not shown: Fc part not described
T6 sequence (looked up): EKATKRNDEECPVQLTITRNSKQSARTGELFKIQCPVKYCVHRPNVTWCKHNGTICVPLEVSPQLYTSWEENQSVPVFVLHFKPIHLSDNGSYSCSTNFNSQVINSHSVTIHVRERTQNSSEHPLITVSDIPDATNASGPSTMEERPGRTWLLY

T7: mouse CD28 Fc fusion (dimeric) (mouse, UniProt P31041 20-150)
T7 construct: not shown: Fc part not described
T7 sequence (looked up): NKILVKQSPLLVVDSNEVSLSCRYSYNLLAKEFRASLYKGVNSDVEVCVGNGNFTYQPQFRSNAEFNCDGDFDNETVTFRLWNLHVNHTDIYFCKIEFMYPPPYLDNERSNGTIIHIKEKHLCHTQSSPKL

T8: mouse PD-1 Fc fusion (dimeric) (mouse, UniProt Q02242 25-167)
T8 construct: not shown: Fc part not described
T8 sequence (looked up): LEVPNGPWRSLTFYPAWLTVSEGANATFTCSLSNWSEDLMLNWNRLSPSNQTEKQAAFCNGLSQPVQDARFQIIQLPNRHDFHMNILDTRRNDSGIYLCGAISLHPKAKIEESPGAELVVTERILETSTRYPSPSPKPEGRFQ

T9: human BTLA Fc fusion (dimeric) (human, UniProt Q7Z6A9 31-157)
T9 construct: not shown: Fc part not described
T9 sequence (looked up): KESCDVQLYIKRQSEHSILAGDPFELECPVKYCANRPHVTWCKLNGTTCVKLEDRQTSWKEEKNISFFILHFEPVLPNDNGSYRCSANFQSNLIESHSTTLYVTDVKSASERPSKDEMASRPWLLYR

T10: human CTLA-4 Fc fusion (dimeric) (human, UniProt P16410 37-162)
T10 construct: not shown: Fc part not described
T10 sequence (looked up): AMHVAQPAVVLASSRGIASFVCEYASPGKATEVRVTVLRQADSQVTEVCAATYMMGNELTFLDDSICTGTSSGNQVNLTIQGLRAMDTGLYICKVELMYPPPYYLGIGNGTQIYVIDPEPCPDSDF

B1: human ICOS-hFc (homodimeric, bivalent) (Fc fusion)
chain: EINGSANYEMFIFHNGGVQILCKYPDIVQQFKMQLLKGGQILCDLTKTKGSGNTVSIKSLKFCHSQLSNNSVSFFLYNLDHSHANYYFCNLSIFDPPPFKVTLTGGYLHIYESQLCCQLKF
notes: also called hICOS-Fc; hICOS-hFc; not shown: human IgG1 Fc (IgG1 backbone)

Legend:
hICOSL-mG2a = target: T1, hICOSL-mG2a; assay: BLI, bivalent binding to homodimeric ICOS-Fc
[1] = target: T2, mouse ICOS-hFc (homodimeric, bivalent); assay: BLI
Method: (§1) Cross-reactivity measurements were conducted using BLI technology with antibody panels being screened for binding to human, mouse, and cynomolgus ICOS-Fc fusions (homodimeric, bivalent forms).

[2] = target: T3, mouse ICOS (full length, on cells); assay: flow cytometry on ICOS+ CHO cells
Description: To assess specificity, binding to human ICOS+ CHO cells and mouse ICOS+ CHO cells was individually analyzed by flow cytometry. As a control to screen out pan-reactive antibodies, staining on CHO cells lacking ICOS receptor expression was also examined. All of the selected antibodies bound to human and mouse ICOS+ CHO cells, and not to CHO cells lacking ICOS expression.

[3] = target: T4, monovalent, heterodimeric human ICOS-Fc; assay: BLI (Octet RED96), IgG vs monovalent heterodimeric ICOS-Fc
Method: (§2) Affinity measurements were conducted using Bio-Layer Interferometry (BLI) technology (ForteBio Octet® RED96). The monovalent affinities were generated with IgG versions of the antibodies with monovalent, heterodimeric forms of the ICOS receptor. The avid affinities were generated using full-length IgGs against homodimeric forms of the ICOS receptor.

[4] = target: T5, cynomolgus ICOS-Fc (homodimeric, …); assay: BLI, bivalent binding to homodimeric ICOS-Fc
Method: as §1

[5] = target: B1; assay: BLI, bivalent binding to homodimeric ICOS-Fc
Method: as §1

[6] = target: T6, mouse BTLA Fc fusion (dimeric); assay: binding to dimeric Fc fusions of CD28 family members
Method: (§3) To further assess the specificity of the anti-ICOS antibodies, the antibodies were screened for binding to additional members of the CD28 protein family (CD28, BTLA, PD-1 and CTLA-4). […] Specifically, binding to Fc fusions (of CD28, BTLA, PD-1 and CTLA-4) in dimeric forms was evaluated, and no binding was observed. For a subset of the CD28 family members, mouse or human protein was over-expressed on the surface of HEK293 and CHOK1 cells. No binding of antibody above background relative to untransduced parental cells was observed.

[7] = target: T7, mouse CD28 Fc fusion (dimeric); assay: as above
Method: as §3

[8] = target: T8, mouse PD-1 Fc fusion (dimeric); assay: as above
Method: as §3

[9] = target: T11, mouse CTLA-4 Fc fusion (dimeric) (mouse, UniProt P09793 36-162); assay: as above
T11 construct: not shown: Fc part not described
Method: as §3

[10] = target: T12, human CD28 Fc fusion (dimeric) (human, UniProt P10747 19-152); assay: as above
T12 construct: not shown: Fc part not described
T12 sequence (P10747 19-152): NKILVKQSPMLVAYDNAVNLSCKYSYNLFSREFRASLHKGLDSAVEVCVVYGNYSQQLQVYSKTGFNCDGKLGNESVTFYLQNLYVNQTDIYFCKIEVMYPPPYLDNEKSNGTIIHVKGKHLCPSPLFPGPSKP
Method: as §3

[11] = target: T13, human PD-1 Fc fusion (dimeric) (human, UniProt Q15116 25-167); assay: as above
T13 construct: not shown: Fc part not described
T13 sequence (Q15116 25-167): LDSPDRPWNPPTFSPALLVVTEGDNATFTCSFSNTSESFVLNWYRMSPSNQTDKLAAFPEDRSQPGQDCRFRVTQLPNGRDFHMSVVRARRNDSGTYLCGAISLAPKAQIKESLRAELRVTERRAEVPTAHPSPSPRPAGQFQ
Method: as §3

[12] = target: T9, human BTLA Fc fusion (dimeric); assay: as above
Method: as §3

[13] = target: T10, human CTLA-4 Fc fusion (dimeric); assay: as above
Method: as §3

[14] = target: B1; assay: BLI (Octet RED96), full-length IgG vs homodimeric ICOS-Fc (avid)
Method: as §2

| binding result [1] | binding result [2] | Kd [3] [nM] | koff [3] [s⁻¹] | Kd [4] [nM] | koff [4] [s⁻¹] | kon [4] [M⁻¹ s⁻¹] | Kd [5] [nM] | koff [5] [s⁻¹] | kon [5] [M⁻¹ s⁻¹] | binding result [6] | binding result [7] | binding result [8] | binding result [9] | binding result [10] | binding result [11] | binding result [12] | binding result [13] | Kd [14] [nM] | koff [14] [s⁻¹] | Binder | other results |
| --- | --- | --- | --- | --- | --- | --- | --- | --- | --- | --- | --- | --- | --- | --- | --- | --- | --- | --- | --- | --- | --- |
|  |  |  |  |  |  |  |  |  |  |  |  |  |  |  |  |  |  |  |  | B1 | Kd (hICOSL-mG2a): 0.362 nM; koff (hICOSL-mG2a): 0.000341 s⁻¹; kon (hICOSL-mG2a): 941000 M⁻¹ s⁻¹ |
| binds | binds | 13.2 | 0.00175 | < 0.001 | < 1e-07 | 585000 | 0.0342 | 2.3e-05 | 674000 | no binding | no binding | no binding | no binding | no binding | no binding | no binding | no binding | 0.0342 | 2.3e-05 | 7F12 (antibody, V domains shown, Armenian hamster monoclonal tested as IgG; also called hamster anti-ICOS 7F12) VH: EVQLVESGGGLVKPGGSLTLSCAASGFTFSDYWMDWVRQGPGKGLEWVGNIDEDGSTTYYAPFVKGRFTISRDNAKKTLYLQMNSVKSEDTATYYCTRWGRYAFDSWGQGTLVTVSS VL: DIVMTQSPSSLAVSPGDKVTINCKSSQSLLSGNYNYLAWYQQKTGQAPKLLIFYASTRHTGVPDRFMGSGSGTDFSLTINSFQTEDLGDYYCQHHYSTPPTFGPGTKLEIK | kon [3]: 133000 M⁻¹ s⁻¹; kon [14]: 674000 M⁻¹ s⁻¹ |
| binds | binds | 4.37 | 0.000712 | < 0.001 | < 1e-07 | 647000 | < 0.001 | < 1e-07 | 626000 | no binding | no binding | no binding | no binding | no binding | no binding | no binding | no binding | < 0.001 | < 1e-07 | 16G10 (antibody, V domains shown, Armenian hamster monoclonal tested as IgG; also called hamster anti-ICOS 16G10) VH: EVQLVESGGGLVKPGGSLKLSCAASGFTFSDYWMDWVRQAPGKGLEWVGNIDHDGNIINFAPSVKGRFTISRDNAKNTLYLQMNSVKSEDTATYYCARWGHYAFDSWGQGTLVTVSS VL: DIVMTQSPSSLAVSAGDKVTINCKSSQSLLSSGYNYLIWYQQKTGQAPKLLIFYASTRHTGVPDRFIGSGSGTDFTLTITSFQTEDLGDYYCQHHYSSPPTFGPGTKLEIK | kon [3]: 163000 M⁻¹ s⁻¹; kon [14]: 1.01e+06 M⁻¹ s⁻¹ |
| binds | binds | 3.18 | 0.000479 | < 0.001 | < 1e-07 | 712000 | < 0.001 | < 1e-07 | 625000 | no binding | no binding | no binding | no binding | no binding | no binding | no binding | no binding | 0.0342 | 2.3e-05 | 37A10 (antibody, V domains shown, Armenian hamster monoclonal tested as IgG; also called hamster anti-ICOS 37A10) VH: EVQLVESGGGLVKPGGSLKLSCAASGFTFSDYWMDWVRQAPGKGLEWVGNIDEDGSITEYSPFVKGRFTISRDNVKNTLYLQMNSVKSEDTATYYCTRWGRFGFDSWGQGTLVTVSS VL: DIVMTQSPSSLAVSAGDRVTINCKSSQSLLSGSFNYLTWYQQKTGQAPKLLIFYASTRHTGVPDRFMGSGSGTDFTLTINSFQTEDLGDYYCHHHYNAPPTFGPGTKLELR | kon [3]: 151000 M⁻¹ s⁻¹; kon [14]: 674000 M⁻¹ s⁻¹ |
| binds | binds | 1.59 | 0.000228 | < 0.001 | < 1e-07 | 697000 | < 0.001 | < 1e-07 | 617000 | no binding | no binding | no binding | no binding | no binding | no binding | no binding | no binding | < 0.001 | < 1e-07 | 36E10 (antibody, V domains shown, Armenian hamster monoclonal tested as IgG; also called hamster anti-ICOS 36E10) VH: EVQLVESGGGLVKPGGSLKLSCAASGFTFSDYWMDWVRQAPGKGLEWVGNIDEDGSITEYSPFVKGRFTISRDNVKNILYLQMNSVKSEDTATYYCTRWGRFAFDSWGQGTLVTVSS VL: DIVMTQSPSSLAVSPGDRVTINCKSSQSLLSGSFHYLTWYQQKTGQAPKLLIFYASTRHTGVPDRFMGSGSGTDFTLTINSFQTEDLGDYYCHHHYNAPPTFGPGTKLELR | kon [14]: 626000 M⁻¹ s⁻¹ |
